Assay results as given in the supplement of paper PMC12764529.
± gives the half width of the 95% confidence interval.

Assay: folding stability dG unfold (combined trypsin and chymotrypsin); higher = more stable
How it was run: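 Sequencing followed digestion of designed mini-proteins with trypsin and chymotrypsin, each at 11 concentrations in threefold dilutions together with a no-protease condition. The mini-proteins were under 80 residues, had no cysteine, sat in a PA-tagged cDNA display construct, and were kept only if AlphaFold2 dimer inter-PAE was above 15. From the counts, Bayesian fitting gave K50, and unfolding free energy was derived against a sequence-predicted unfolded-state K50 and a shared folded-state K50, per protease or combined.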

Sequence | folding stability dG unfold [kcal/mol]
SAGKPKVIFIEGMTKEQLRAAIDEAKKKLKPGDIIVVRSKEAADALKELLPDLTVYLVDEETKEVKKLPSAG [r5_391_TrROS_Hall] | 2.08 ± 0.14
SKKKKKKTIKIKITIKVEKEVKIRIIYNGKEKEITIKPGETKTIEITFPAGKVIIEIYKDGKPIKKIEIKSA [r9_411_TrROS_Hall] | 2.95 ± 0.1
SSSTVTVTVTFPDGTVVTVDFTGSLAEVEAAVREWVRQYAAEQGLDPREVRVTITFADDGTTRERTLPLRSA [r9_1193_JUSTAS] | 2.04 ± 0.086
SAGGSAGGMVRFDPAGGRLFLDGVPVELSEVLSVESLEEEGRVRVEALLVDGSRLEFEIPKEALSAGGSAGG [r6_682_JUSTAS] | 2.13 ± 0.029
SMDIKVTKLPDGSYRITASVPPDTKPITIPVPKTGKPVVITTEPGKLTVTTDDEEVVKEVAEAIKKGELLSA [r9_515_JUSTAS] | 1.02 ± 0.15
SAGGSAGGSEVEITVTETEDTVTVTIRFKDTGKTVTITVPKDMTPEEVLARAKELLKKLGIEPSAGGSAGGS [r12_764_TrROS_Hall] | 3.88 ± 0.25
SAGGSAGGSAPEVKIKVELFENENGELTATATIEVDGKLYKITVKFDKNGKIVEVKIEELPSAGGSAGGSAG [r3_165_TrROS_Hall] | 4.14 ± 0.45
SAGGSAGGSAGGSKFLVKTSVEVFKNPVGGNRYGAKITTLAVNPDTNEVTLSESYLPLDLSAGGSAGGSAGG [r7_216_TrMRF] | 0.62 ± 0.12
SAGMIRIIVDGKEVEEIEMSEEELRALLADPNIKKARVFVNGEEKEVEVKEGEIKEKLPPGAVIRIEKSAGG [r19_152_TrROS_Hall] | 1.79 ± 0.12
SAGGKPNEKVKIKIKNKDGSEETIEIKVDEEVKIKIKFNGEEKEITIKKGETLTITLENAEIEVEKVSAGGS [r16_456_TrROS_Hall] | 1.94 ± 0.31
SAMMKAEIVEIKFDPKTKKLTIKFPDGSKLEIKPGETIKIKIKVTVFNEETGKLEEKEITLTLKLPEGLSAG [r14_366_TrROS_Hall] | 2.91 ± 0.43
SAGGSAGGSAGPPPIEELLEQAKKNPNRPITIRNPGGYYIRITVKPDPNGKPEVEIEPVPSAGGSAGGSAGG [r11_300_TrROS] | 0.263 ± 0.16
SAGGSAKKVIVIEVKPGEKITITINGKKVEIVEVKPEGETFLIRNKDTGEIYKITVVDGKVVIEKLSAGGSA [r15_235_TrROS_Hall] | 3.74 ± 0.22
SAGGSAGGSAGMVDKKTGKPVEKVKVIIRNKNGKKEEKEVTLEELKELAENLPYEIEFEKSAGGSAGGSAGG [r17_125_TrROS_Hall] | 1 ± 0.25
SAGMEIKYTITVSLSSGQTLGTKTITDPGKSIEEIVKEFAKIPGLTLITVTVTNPDGTPTTVTIPVNPSAGG [r19_269_JUSTAS] | 2.79 ± 0.051
SAGGSAGGSAGGMVTVETAPAPEGTERVIRVTFLEVNPEDGTIVRPATLTFVVPPGDPLSAGGSAGGSAGGS [r10_86_TrMRF] | 0.686 ± 0.062

Sequence | folding stability dG unfold [kcal/mol]
SAGMPGKIRVEVEAEISEDNVIKLKIKIYGPDGELIDEIEAEIYLPVPPLSPSEGGGLIEAGNPELAEGSAG [r5_944_TrMRF] | 3.13 ± 0.13
SAGGSMTVVIVKLRPPDSPEVLYLPFRGRLPNGDWVPISLEELLEALEALPDLEVEEIIVAPPEEISAGGSA [r2_192_TrMRF] | 1.7 ± 0.23
SSLSIPGATKEEFEEIAEELEKKNPGVKVTVTYDPENGVITITITKPVKDKKGNLIGTETEVITITVTKPSA [r9_378_JUSTAS] | 2.41 ± 0.14
SAGGSAGGSAGGMAENLSPEQLRELAKELGLSEEDLEPGQVVRFRLPNGEVIEVRVEDESAGGSAGGSAGGS [r10_623_TrROS_Hall] | 0.913 ± 0.067
SAGGSAGGSAGWYFPIDELQKEHPNMSPETIADFFQKDGYKIEVEPVGPEPWVKIEPPEKSAGGSAGGSAGG [r11_707_TrROS] | 0.242 ± 0.12
SAGPKELAKQIKEIARELARAFHPNGQPMKMEVEIEPVSIDDENGWVRLKVKIRMPNRPVKFNITIPLKSAG [r5_53_TrROS] | 2.72 ± 0.27
SAGGSAESIPVDELVELAKKLGLDVTVTPLPETGLVRVEITFTTPDGSKVPATVLVHPDGRTTVFPSAGGSA [r15_1051_TrMRF] | 2.08 ± 0.032
MNIKVTSVLPDGTVVVTAEAPLPDGSSIRVTAARRGKDSYVLVTVNVYPTKVVADIKEVAPVSPGSPEEGGS [r1_53_TrMRF] | 2.88 ± 0.12
SAGGSAGGSMLTVKITLPNGEKIEIEIEAESEEEAKAAAEKLLEALREAGVSLEDVKVEVVEPSAGGSAGGS [r12_295_TrROS_Hall] | 3.66 ± 0.29
SAGGSAGGSKTVVITLPENEELGLEKLEELIEKVGPDAKIIISRWDPETGKVDYLVIETGEGKSAGGSAGGS [r12_913_TrMRF] | 1.69 ± 0.14
SAGGSAGGSAGGPLKLKVKLKLEFEVKDENGKTSKVELEVELEVELPEIVLDKNGKLLLSAGGSAGGSAGGS [r10_168_TrROS_Hall] | 2.95 ± 0.32
SAGGSAEEEVETVTLTVTVTVPPAPEVEVVSVEVERLPDGTLRVRAVVRLKDVPDRFVEVELTIRPSAGGSA [r15_627_TrROS_Hall] | 3.18 ± 0.16
SMLNIPSDWKVITIKLEYKVEPGVSEEEVKEKAIEELKKKFPKNTKIEVEVTPDPETGTVTIKITIIIKKSA [r9_657_JUSTAS] | 1.84 ± 0.1
SAAKIYILPGNNVILVRPPLPNGPFGELVIPTKPSELENPEFLKEIVDEIRKAGIPFEATILPPGVPPESAG [r14_60_TrMRF] | 0.868 ± 0.24
SAGGSAGGKIKVEIEYNGEKKEMTLDEIKALLKKNLPPNATIRVKKNGKTIPLKKVKVKKLKKKSAGGSAGG [r6_936_TrROS_Hall] | 1.35 ± 0.18
